B1: Septin-11 (Homo sapiens), Q9NVA2 (parent)
chain: MAVAVGRPSNEELRNLSLSGHVGFDSLPDQLVNKSTSQGFCFNILCVGETGIGKSTLMDTLFNTKFESDPATHNEPGVRLKARSYELQESNVRLKLTIVDTVGFGDQINKDDSYKPIVEYIDAQFEAYLQEELKIKRSLFNYHDTRIHACLYFIAPTGHSLKSLDLVTMKKLDSKVNIIPIIAKADTIAKNELHKFKSKIMSELVSNGVQIYQFPTDEETVAEINATMSVHLPFAVVGSTEEVKIGNKMAKARQYPWGVVQVENENHCDFVKLREMLIRVNMEDLREQTHTRHYELYRRCKLEEMGFKDTDPDSKPFSLQETYEAKRNEFLGELQKKEEEMRQMFVMRVKEKEAELKEAEKELHEKFDLLKRTHQEEKKKVEDKKKELEEEVNNFQKKKAAAQLLQSQAQQSGAQQTKKDKDKKNASFT
partner: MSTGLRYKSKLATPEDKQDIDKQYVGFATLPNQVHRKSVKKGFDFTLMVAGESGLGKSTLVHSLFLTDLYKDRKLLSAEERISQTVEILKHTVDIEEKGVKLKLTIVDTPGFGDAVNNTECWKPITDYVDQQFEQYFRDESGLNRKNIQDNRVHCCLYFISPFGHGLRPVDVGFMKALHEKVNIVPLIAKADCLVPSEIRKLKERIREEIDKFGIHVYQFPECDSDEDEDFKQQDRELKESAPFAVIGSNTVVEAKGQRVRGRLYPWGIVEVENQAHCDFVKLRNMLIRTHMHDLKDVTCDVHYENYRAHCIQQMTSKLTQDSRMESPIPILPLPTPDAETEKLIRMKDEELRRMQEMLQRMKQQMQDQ

Variants of: B1
Conditions: with sept5_human SEPTIN5, Q99719

Variant	effect of a mutation on the interaction
S55N	disrupting interaction

Reference: IntAct's records for PubMed 16767699
